# B1: library; numbered along this chain (parent)
# chain: MRKPRAAVGSGHRKQAASQEGRQKHAKNNSQAKPSACDGLARQPEEVVLQASVSSYHLFRDVAEVTAFRGSLLSWYDQEKRDLPWRRRAEDEMDLDRRAYAVWVSEVMLQQTQVATVINYYTGWMQKWPTLQDLASASLEEVNQLWAGLGYYSRGRRLQEGARKVVEELGGHMPRTAETLQQLLPGVGRYTAGAIASIAFGQATGVVDGNVARVLCRVRAIGADPSSTLVSQQLWGLAQQLVDPARPGDFNQAAMELGATVCTPQRPLCSQCPVESLCRARQRVEQEQLLASGSLSGSPDVEECAPNTGQCHLCLPPSEPWDQTLGVVNFPRKASRKPPREESSATCVLEQPGALGAQILLVQRPNSGLLAGLWEFPSVTWEPSEQLQRKALLQELQRWAGPLPATHLRHLGEVVHTFSHIKLTYQVYGLALEGQTPVTTVPPGARWLTQEEFHTAAVSTAMKKVFRVYQGQQPGTCMGSKRSQVSSPCSRKKPRMGQQVLDNFFRSHISTDAHSLNSAAQ
# Variants of: B1
# Assay: 8OG:A repair function score (normalized; synonymous = 0, nonsense = -1) (normalized log-likelihood score); higher = more repair activity (WT-like)
# Details: with 8OG:A DNA repair reporter (GFP) in HEK-293 MUTYH KO cells
# Outline: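 MUTYH knockout HEK-293 cells carrying lentiviral MUTYH cDNA NNN codon-scan libraries were grown with 10 pg/ml doxycycline and co-transfected with mCherry and a GFP reporter of 8OG:A repair. Viable mCherry+ cells were sorted at 72 h into GFP+ (repair) and GFP− bins, with three replicates per tile, and tile amplicons were sequenced. Rosace fitness scores for each tile were turned into a normalized repair function score anchored on the synonymous and nonsense distributions. Synonymous medians were set to 0 and nonsense medians to -1, and variants below 300 counts per million at the start were dropped.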
row,Variant,8OG:A repair function score
1,MRKPRAAVGSGHRKQAASQEGRQKHAKNNSQAKPSACDGLARQPEEVVLQASVSSYHLFRDVAEVTAFRGSLLSWYDQEKRDLPWRRRAEDEMDLDRRAYAVWVSEVMLQQTQVATVINYYTGWMQKWPTLQDLASASLEEVNQLWAGLGYYSRGRRLQEGARKVVEELGGHMPRTAETLQQLLPGVGRYTAGAIASIAFGQATGVVDGNVARVLCRVRAIGADPSSTLVSQQLWGLAQQLVDPARPGDFNQAAMELGATVCTPQRPLCSQCPVESLCRARQRVEQEQLLASGSLSGSPDVEECAPNTGQCHLCCPPSEPWDQTLGVVNFPRKASRKPPREESSATCVLEQPGALGAQILLVQRPNSGLLAGLWEFPSVTWEPSEQLQRKALLQELQRWAGPLPATHLRHLGEVVHTFSHIKLTYQVYGLALEGQTPVTTVPPGARWLTQEEFHTAAVSTAMKKVFRVYQGQQPGTCMGSKRSQVSSPCSRKKPRMGQQVLDNFFRSHISTDAHSLNSAAQ [L315C],-0.0705
2,MRKPRAAVGSGHRKQAASQEGRQKHAKNNSQAKPSACDGLARQPEEVVLQASVSSYHLFRDVAEVTAFRGSLLSWYDQEKRDLPWRRRAEDEMDLDRRAYAVWVSEVMLQQTQVATVINYYTGWMQKWPTLQDVASASLEEVNQLWAGLGYYSRGRRLQEGARKVVEELGGHMPRTAETLQQLLPGVGRYTAGAIASIAFGQATGVVDGNVARVLCRVRAIGADPSSTLVSQQLWGLAQQLVDPARPGDFNQAAMELGATVCTPQRPLCSQCPVESLCRARQRVEQEQLLASGSLSGSPDVEECAPNTGQCHLCLPPSEPWDQTLGVVNFPRKASRKPPREESSATCVLEQPGALGAQILLVQRPNSGLLAGLWEFPSVTWEPSEQLQRKALLQELQRWAGPLPATHLRHLGEVVHTFSHIKLTYQVYGLALEGQTPVTTVPPGARWLTQEEFHTAAVSTAMKKVFRVYQGQQPGTCMGSKRSQVSSPCSRKKPRMGQQVLDNFFRSHISTDAHSLNSAAQ [L134V],0.0486
3,MRKPRAAVGSGHRKQAASQEGRQKHAKNNSQAKPSACDGLARQPEEVVLQASMSSYHLFRDVAEVTAFRGSLLSWYDQEKRDLPWRRRAEDEMDLDRRAYAVWVSEVMLQQTQVATVINYYTGWMQKWPTLQDLASASLEEVNQLWAGLGYYSRGRRLQEGARKVVEELGGHMPRTAETLQQLLPGVGRYTAGAIASIAFGQATGVVDGNVARVLCRVRAIGADPSSTLVSQQLWGLAQQLVDPARPGDFNQAAMELGATVCTPQRPLCSQCPVESLCRARQRVEQEQLLASGSLSGSPDVEECAPNTGQCHLCLPPSEPWDQTLGVVNFPRKASRKPPREESSATCVLEQPGALGAQILLVQRPNSGLLAGLWEFPSVTWEPSEQLQRKALLQELQRWAGPLPATHLRHLGEVVHTFSHIKLTYQVYGLALEGQTPVTTVPPGARWLTQEEFHTAAVSTAMKKVFRVYQGQQPGTCMGSKRSQVSSPCSRKKPRMGQQVLDNFFRSHISTDAHSLNSAAQ [V53M],-0.112
4,MRKPRAAVGSGHRKQAASQEGRQKHAKNNSQAKPSACDGLARQPEEVVLQAIVSSYHLFRDVAEVTAFRGSLLSWYDQEKRDLPWRRRAEDEMDLDRRAYAVWVSEVMLQQTQVATVINYYTGWMQKWPTLQDLASASLEEVNQLWAGLGYYSRGRRLQEGARKVVEELGGHMPRTAETLQQLLPGVGRYTAGAIASIAFGQATGVVDGNVARVLCRVRAIGADPSSTLVSQQLWGLAQQLVDPARPGDFNQAAMELGATVCTPQRPLCSQCPVESLCRARQRVEQEQLLASGSLSGSPDVEECAPNTGQCHLCLPPSEPWDQTLGVVNFPRKASRKPPREESSATCVLEQPGALGAQILLVQRPNSGLLAGLWEFPSVTWEPSEQLQRKALLQELQRWAGPLPATHLRHLGEVVHTFSHIKLTYQVYGLALEGQTPVTTVPPGARWLTQEEFHTAAVSTAMKKVFRVYQGQQPGTCMGSKRSQVSSPCSRKKPRMGQQVLDNFFRSHISTDAHSLNSAAQ [S52I],-0.0155
5,MRKPRAAVGSGHRKQAASQEGRQKHAKNNSQAKPSACDGLARQPEEVVLQASVSSYHLFRDVAEVTAFRGSLLSWYDQEKRDLPWRRRAEDEMDLDRRAYAVWVSEVMLQQTQVATVINYYTGWMQKWPTLQDLTSASLEEVNQLWAGLGYYSRGRRLQEGARKVVEELGGHMPRTAETLQQLLPGVGRYTAGAIASIAFGQATGVVDGNVARVLCRVRAIGADPSSTLVSQQLWGLAQQLVDPARPGDFNQAAMELGATVCTPQRPLCSQCPVESLCRARQRVEQEQLLASGSLSGSPDVEECAPNTGQCHLCLPPSEPWDQTLGVVNFPRKASRKPPREESSATCVLEQPGALGAQILLVQRPNSGLLAGLWEFPSVTWEPSEQLQRKALLQELQRWAGPLPATHLRHLGEVVHTFSHIKLTYQVYGLALEGQTPVTTVPPGARWLTQEEFHTAAVSTAMKKVFRVYQGQQPGTCMGSKRSQVSSPCSRKKPRMGQQVLDNFFRSHISTDAHSLNSAAQ [A135T],-0.165
6,MRKPRAAVGSGHRKQAASQEGRQKHAKNNSQAKPSACDGLARQPEEVVLQASVSSYHLFRDVAEVTAFRGSLLSWYDQEKRDLPWRRRAEDEMDLDRRAYAVWVSEVMLQQTQVATVINYYTGWMQKWPTLQDLASASLEEVNQLWAGLGYYSRGRRLQEGARKVVEELGGHMPRTAETLQQLLPGVGRYTAGAIASIAFGQATGVVDGNVARVLCRVRAIGADPSSTLVSQQLWGLAQQLVDPARPGDFNQAAMELGATVCTPQRPLCSQCPVESLCRARQRVEQEQLLASGSLSGSPDVEECAPNTGQCHLCLPPSEPWDQTLGVVNFPRKASRKPPREESSATCVLEQPGALGAQILLVQRPNSGLLAGLWEFPSVTWEPSEQLQRKALLQELQRWAGPLPATHLRHLGEVVHTFSHIKLTYQVYGLALEGQTPVTTVPPGARWLTQEEFHTAAVSTAMKKVFRVYQGQQPGTCMGSKQSQVSSPCSRKKPRMGQQVLDNFFRSHISTDAHSLNSAAQ [R482Q],0.0234

# Reference: the supplement of paper PMC11908140
